From paper PMC4663176 (Insect biochemistry and molecular biology, 2015)
Read-outs that look alike come from different tables or passages of the source.

What was measured:
[1] = target: T1, Arylalkylamine N-acyltransferase like 2 (AANATL2) (Drosophila melanogaster, UniProt Q9VMG0); experiment: dead-end inhibition kinetics, DTNB assay of CoA release, purified enzyme; format: biochemical
T1 sequence (Q9VMG0 1-216): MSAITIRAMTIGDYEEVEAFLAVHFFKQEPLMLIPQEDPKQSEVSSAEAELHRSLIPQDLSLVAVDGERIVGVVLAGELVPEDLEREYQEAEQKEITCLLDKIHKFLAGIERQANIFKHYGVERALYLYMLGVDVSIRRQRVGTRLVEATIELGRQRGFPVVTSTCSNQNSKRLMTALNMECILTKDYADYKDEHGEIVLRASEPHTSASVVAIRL

[2] = target: T1, Arylalkylamine N-acyltransferase like 2 (AANATL2); experiment: as above; format: biochemical; remark: listed apart in the source
steady-state kinetics [3] = substrate: NCCc1c[nH]c2ccc(OCc3ccccc3)cc12; experiment: steady-state kinetics; format: biochemical, Drosophila melanogaster; conditions: acetyl-CoA; pH 8.0
steady-state kinetics [4] = substrate: NCCc1c[nH]c2ccccc12; experiment: steady-state kinetics; format: biochemical, Drosophila melanogaster; conditions: acetyl-CoA; pH 8.0
steady-state kinetics [5] = substrate: CC(CN)c1ccccc1; experiment: steady-state kinetics; format: biochemical, Drosophila melanogaster; conditions: acetyl-CoA; pH 8.0
steady-state kinetics [6] = substrate: NCCCCc1ccccc1; experiment: steady-state kinetics; format: biochemical, Drosophila melanogaster; conditions: acetyl-CoA; pH 8.0
steady-state kinetics [7] = substrate: COc1ccc(CCN)cc1; experiment: steady-state kinetics; format: biochemical, Drosophila melanogaster; conditions: acetyl-CoA; pH 8.0
purified protein [8] = substrate: CC(=O)SCCNC(=O)CCNC(=O)[C@H](O)C(C)(C)COP(=O)(O)OP(=O)(O)OC[C@H]1O[C@@H](n2cnc3c(N)ncnc32)[C@H](O)[C@@H]1OP(=O)(O)O; experiment: purified protein; conditions: acetyl-CoA binds first in an ordered sequential mechanism
purified protein [9] = substrate: NCCc1cccc(C(F)(F)F)c1; experiment: purified protein; conditions: acetyl-CoA; pH 8.0

OCCc1ccc(O)cc1 [tyrosol]
Ki [1]: 52 ± 9 µM

CCCCCCCC/C=C\CCCCCCCC(=O)SCCNC(=O)CCNC(=O)[C@H](O)C(C)(C)COP(=O)(O)OP(=O)(O)OC[C@H]1O[C@@H](n2cnc3c(N)ncnc32)[C@H](O)[C@@H]1OP(=O)(O)O [oleoyl-CoA]
Ki [2]: 180 ± 30 nM

B1: Arylalkylamine N-acyltransferase like 2 (AANATL2) (Drosophila melanogaster) (protein)
chain: T1 sequence (Q9VMG0 1-216)
Km (steady-state kinetics [3]): 8 ± 1 µM
kcat (steady-state kinetics [3]): 2.8 ± 0.1 s⁻¹
kcat/Km (steady-state kinetics [3]): 330000 ± 40000 M⁻¹ s⁻¹
Km (steady-state kinetics [4]): 14 ± 3 µM
kcat (steady-state kinetics [4]): 4.3 ± 0.3 s⁻¹
kcat/Km (steady-state kinetics [4]): 310000 ± 60000 M⁻¹ s⁻¹
Km (steady-state kinetics [5]): 9 ± 1 µM
kcat (steady-state kinetics [5]): 2.9 ± 0.1 s⁻¹
kcat/Km (steady-state kinetics [5]): 320000 ± 40000 M⁻¹ s⁻¹
Km (steady-state kinetics [6]): 9.5 ± 0.4 µM
kcat (steady-state kinetics [6]): 1 ± 0.02 s⁻¹
kcat/Km (steady-state kinetics [6]): 110000 ± 5000 M⁻¹ s⁻¹
Km (steady-state kinetics [7]): 10 ± 2 µM
kcat (steady-state kinetics [7]): 3.7 ± 0.1 s⁻¹
kcat/Km (steady-state kinetics [7]): 370000 ± 60000 M⁻¹ s⁻¹
Km (purified protein [8]): 5 ± 1 µM
kcat (purified protein [8]): 1.6 s⁻¹
kcat/Km (purified protein [8]): 310000 M⁻¹ s⁻¹
Km (purified protein [9]): 10 ± 2 µM
kcat (purified protein [9]): 4.5 ± 0.2 s⁻¹
kcat/Km (purified protein [9]): 440000 ± 70000 M⁻¹ s⁻¹
